Laboratory results: the DeepSol protein solubility set

assay: soluble on expression in E. coli; label from the status in PepcDB or PDB records

Sequence	soluble on expression in E. coli
MSDVPHLRFPEFSGEWEEHTLSEYLEFKNGLNPDAKRIGSGLPFISVMDILSEGVINYDNIRGKVNATEKEIECFGVKDGDLLFQRSSETLEDVGRANVYMDNRTAIYGGFVIRGRKIGNYDPLFFKYLLATPLARKRTCRMGAGAQHFNIGQEGLSKISLYFPSIEEQRKIAEFLSLIDERIATQNKIIEDLKKLKSAISLNVLHSDKWEQFKIKDIAQIGRGRVISSIEIGQQKSPTYPVYSSQTSNDGIMGYLDDYMFEGEYISWTTDGANAGTVFYRNGKFNCTNVCGLLKLRKEFDTHFVSLVLAEATKKYVSINLANPKLMNNTMGNIQIRLPKLEEQKRISIVFRVLQRLWTVHNSLLTEYTKQEQYLLSQMFILEHHHHHH	not soluble
MSDVQSSLTGTWYNELNSKMELTANKDGTLTGKYLSKVGDVYVPYPLSGRYNLQPPAGQGVALGWAVSWENSKIHSATTWSGQFFSESSPVILTQWLLSSSTARGDVWESTLVGNDSFTKTAPTEQQIAHAQLHCRAPRLK	soluble
MSEEDWPSPKFREHVIQRLEPELARNRQNAPNLPVPGDARQVEEYVFAKCMSKDEYMRTIAKVINAINCNSKSAAVPSVLQPSQFHSPPCTTAGNTPAGGTPGYRAPVPPDPQPTSAQARNPPVTVATTQASTTPSAPNPPGGLPAPSASATAAVAAAVASFPSPDTSIRPGGQITPGSQAPGGGPTPAPNVPFPNGSSQMNGGPAMGQPPPQMGAPNMGGPPNGYGGYGMMNGPPGSGAPMGGNPYNQQIKKDMDQARPWDPSAHMYQQQPQWGAMPPQQPHGYPGRPMNGQGATPTGPSSVLESLINQPQQYPGHHNQMGPPGDRNVAAQRAAAQQQQQQQQQQQQQRPGMVPNQGMMSSEDQTVYSAKLRNMRGSCDSLRTRARQCRHEGNHEAAHKLEVMLSVLEGKRVVSLEYLNHLEMWIARKQDFLNIAPMSQNQNHMGMNDPMMNGEHAMLGNGQVPNPYGGHPGYGHQQYMGPPPPHMQMHQPPMWHQQQHQQQQRMMPQDHMMMQGGGGPVHGMYRGDMGHDPMTSPVNNHRHAPYPNPAAMRNNMRMPNGPGPIGRDRNSMSGSSMSGPSSGAPSMNPMGTPNQKMGTPGSMGGMSGLDDLNYDDFLPNPTPIDALQPTLHVGQNSMNAGPPVQRSNLNETARKELQILDARFEIDPNHQRHDANHIIVVCKIRNQQFPPLRLVVPTTYPAGNVTVDRAVIDLDAYLYDDLQNSVYERLSRPGLSSITDYLNAWEEQVNQYQNQTSGGLDVAFNVGNDFFYDNLNL	not soluble
MSEENRVGSKIRQLREARDMTVEELAEASQSSSELIQQLENGALVPSLTPLLKIARALGVRLGTFLDDMPQSGPVLVRSGLSENVVRFSGKTERPKKSALEFYSLASDKADRHMEPFIIDIHPSPEESHTLSSHEGEEFIYVLSGEIEIFYGKDVHRLSEGDSIYYDSIVPHDVHAAGKEDARIMAVVYAPL	not soluble
MSEFFIQEQQLGKVTRTIVKDQAGRSLFLLVGRWGTRGDALSLYAMNGEILASIKQVSWTFGTRFELYQRFEKVGTLRKLFNLNADFYYVQGLHWAVVGDIKAHQYSIYQVHKKIMSMDKTMLCTGDYFVLTVANDEDAPLCICIAAVLDYWLYNKKKQKTSDDFGLDFDPLTD	not soluble
MSEGWNIAVLGATGAVGEALLETLAERQFPVGEIYALARNESAGEQLRFGGKTITVQDAAEFDWTQAQLAFFVAGKEATAAWVEEATNSGCLVIDSSGLFALEPDVPLVVPEVNPFVLTDYRNRNVIAVPDSLTSQLLAALKPLIDQGGLSRISVTSLISASAQGKKAVDALAGQSAKLLNGIPIDEEDFFGRQLAFNMLPLLPDSEGSVREERRIVDEVRKILQDEGLMISASVVQAPVFYGHAQMVNFEALRPLAAEEARDAFVQGEDIVLSEENEFPTQVGDASGTPHLSVGCVRNDYGMPEQVQFWSVADNVRFGGALMAVKIAEKLVQEYLY	soluble
MSEIINNREYRQKVLKELIRELHDGKSVEEIKPRFEELIKGISPAEISEMEQALIMEGMPVEEIQRLCDVHAAVFKGSIEEIHRPQKPEEVPGHPIHTFKLENAEIRKLVDNEIRPQLELYKNGDTAESLKKLREAFQKLWEIDKHYSRKENLLFPYLEKYGITAPPKVMWGVDDEIRADIKEINNKLSANAQNQNIPLEKAEEAVNRVIEMIFKEENILFPMALETLTEDEWAEIARASDEIGYCMITPEAEWKPARVDVVEKTQKEGVKSQENQGFVEFDAGCLTTEEINAMLNTLPIDITFVDKNDTVKYFTQGKERIFARPKTIIGRKVQNCHPPASVHIVEKIIEDLKSGKKDHEDFWIKMGEKYVYIRYFAVRNEKGEYLGTIEVTQDIAPIQKITGEKRLLSDA	soluble
MSEKKAVIGVVTISDRASKGIYEDISGKAIIDYLKDVIITPFEVEYRVIPDERDLIEKTLIELADEKGCSLILTTGGTGPAPRDVTPEATEAVCEKMLPGFGELMRQVSLKQVPTAILSRQTAGIRGSCLIVNLPGKPQSIKVCLDAVMPAIPYCIDLIGGAYIDTDPNKVKAFRPKK	soluble
MSEKLQKVLARAGHGSRREIESIIEAGRVSVDGKIAKLGDRVEVTPGLKIRIDGHLISVRESAEQICRVLAYYKPEGELCTRNDPEGRPTVFDRLPKLRGARWIAVGRLDVNTCGLLLFTTDGELANRLMHPSREVEREYAVRVFGQVDDAKLRDLSRGVQLEDGPAAFKTIKFSGGEGINQWYNVTLTEGRNREVRRLWEAVGVQVSRLIRVRYGDIPLPKGLPRGGWTELDLAQTNYLRELVELPPETSSKVAVEKDRRRMKANQIRRAVKRHSQVSGGRRSGGRNNNG	soluble
MSEKLQVVTLLGSLRKGSFNGMVARTLPKIAPASMEVNALPSIADIPLYDADVQQEEGFPATVEALAEQIRQADGVVIVTPEYNYSVPGGLKNAIDWLSRLPDQPLAGKPVLIQTSSMGVIGGARCQYHLRQILVFLDAMVMNKPEFMGGVIQNKVDPQTGEVIDQGTLDHLTGQLTAFGEFIQRVKI	not soluble
MSELFKKLMDQIEMPLEMKNSRVFSSADIVEVKVYPESRIWDFRFSFETILPIDFYQELRSRLVTSFETADIKAVFDIEVENAEFSNELLQAYYQEAFKQPTCNSASFKSSFSHLTVSYTDGKVLISAPQFVNNDHFRKNHLPNLEKQFEAFGF	not soluble
MSELIIYNGKVYTEDGKIDNGYIHVKDGQIVAIGEVDDKAAIDNDTTNKIQVIDAKGHHVLPGFIDIHIHGGYGQDAMDGSYDGLKYLSENLLSEGTTSYLATTMTQSTDKIDNALTNIAKYEAEQDVHNAAEIVGIHLEGPFISENKVGAQHPQYVVRPFIDKIKHFQETANGLIKIMTFAPEVEGAKEALETYKDDIIFSIGHTVATYEEAVEAVERGAKHVTHLYNAATPFQHREPGVFGAAWLNDALHTEMIVDGTHSHPASVAIAYRMKGNERFYLITDAMRAKGMPEGEYDLGGQKVTVQSQQARLANGALAGSILKMNHGLRNLISFTGDTLDHLWRVTSLNQAIALGIDDRKGSIKVNKDADLVILDDDMNVKSTIKQGKVHTFS	not soluble
MSENLHTIIHHVDFFPLRIRVFRNGDMFDHGRILVVTRKQFKHWIVFLDALTDLLRTATAVRRLFTTQGIPVHHFDDLETNGEYVAVETGPFVNVPYGQARFTLRLKRYNPIIRAPELIPTFLHSAESMDIYLKKEGYGTITGLPYPFDGILSRSPSASNIQIKHLQSHHIPPLKIGGSMEHLNELGTASWLGKNEKWMMGERVKLETQSQTLAQKSEKDEQIPRLDIKEVDGGSTTSEFMRNGEKSKSTTKLPRLLNSNRSFRREPVSAQKPPSEEPRSTSENLPPIDLKSIQISQNSQSTSQKKDSDTISIKTEEEVISILKPEKTTTESIVSSKISRKNAPKDDDEVRFHRSYQVTETTYTTRNSDETDRRKPENVEKTVESKNDRSVQDKSEKIEKKVPEKLSKPQKTETTKSKERAKWADQGNTTLKREKSIEKSTRQGKIDKSIEKLIDKSIDNTEKLSSQKPKIDMAKGELRKFDVDINEIPIRFEGPMVNKSRINTSRIVTSRSTTNLFVDEIVNEDELDDVIERAQLWDLNRRRQNMRQQHTQTSGSLCRSISAPRRRVVLFDPDFD	not soluble
MSEPPPPHSAPVPMVKTDFFAFSGPYLPEDAHGTSSPPEKQQQTRKRGRPTALELLTTRVEELEKENSSLRTFRTAAESRCRALESKQSELFQTVEQLKVVVAKLTNECSARVTSNLPAPRLFADVLKGQSAEKKAEIIAERREAAASISLFEKKTHFAVIENLPDDGSDSQSAKDKVFLDNLIAANPSLPVHIQTFRVKTRKPVLSRPTKIRFSSEADRNSFIFSFSKTLRSLPDRPTNLPRPIRCRRDMTNDVIYPERVES	not soluble
MSEREHWQRVYESKPSDAVSWFQAEATLSLDLIRRIGAPREAAIIDVGGGASTLVDGLLAEGFGDLTVLDLSDAALRVARNRLGARGEEVRWIAGDITGVDLPEATYDVWHDRAVFHFLTTAEARRAYVRQVMKAVRHGGHVIVATFAADGPTECSGLPVMRYDADELHAEFGSAFQLTEHRDEHHVTPAGRVQHFVYCHCLKRLLEHHHHHH	not soluble
MSERILPSTLRGVTNGQKEVTASVGERVPLLPRRFSARPQGNQEAQERTAVKCEQVRYAIQEVIGRGAFGEVSSAEVVGTRDLVAIKRVIHDGRLRQRELTLMRDHLGPNTQQGGVSSLDVGNGVGAHATSVTGSNGEEANGTTAIDGLESWNMPTIVPYHPCVVKLLDHFFASDPSGVQYLFMVMDYIPLDVRRLHHMFLRQREQQMPIILVKVIMFQLARALAFLHARGICHRDVKPNNILVDQETGVVKLCDFGSAKKMQAVGGEGPREKNVPYIFSRYYRAPELLLGSQYYHFHVDMWAFGCVLAELLCGKVLFKGSSSTMDQLVEIIKVLGKPSERELFALNPQSAGSALIRTWGDSHNASQLSPTPSGPLPSSNSANADYMQRRSAPRVKSLLWVEVLPPNTSQAALSLIEQLLRYTPEERLTSAEVLEHVFFDELFSDDARLPNGAPLPASMFQVTREEAEILPPWLLERMAAAEGVAKGRELNQSATAPENAI	not soluble
MSESAFSNRIVQSLLDTDFYKLTMMQAVLHNYPNVDVEWEFRCRNGEDLRPYLGEIQHQIELLCELSLSPEHLVFLERITFMKPDFLRFLGLFRFNTRYVKTSIENDELCIRLHGPWLHVILFEVPLLAIVSEVRNRHRYPDTLLSQARDRLYDKFEWLTVNATPDELAELKVADFGTRRRFSYRVQEEVLNVLKLDFPGQLVGTSNVHLARQLDLKPLGTMAHEWIMAHQQLGPRLIDSQIAALDCWVREYRGLLGIALTDCITTDAFLNDFDLYFAKLFDGLRHDSGDPVKWAEKCISHYQKLGIDPMSKTLVFSDGLNLPKALDIFRALRGRINVSFGIGTNLTADIPGIAPMNMVLKMTACAGQAVAKISDESGKTQCKDPNFVAYLRHVFKVPDLPSPAKPALEHHHHHH	not soluble
MSETIEIDELVFSVKRSTRRRTVGVTVERDKSLVAHLPQGVALDVATRLIASKLLWVHQKLAEHGETARDDVFRIPEFVDGEGFHLLGKHYRLKLVDVPKNVTGVPSVRFEGDRILLRREQAASGGKRIEEYYTRAAHPYLNETVQRWKRIVGVEPGRFVQVMDLGYRWGSCSEDGTLNFHWRTMQLPPRIIEYVVVHELVHIKVPNHSEKFWKMIGSVMPDYESRKAWLKQKGGEL	soluble
MSFELPALPFAKDALEPHISAETLDYHHGKHHNTYVVKLNGLIPGTEFEGKTLEEIIKTSTGGVFNNAAQIWNHTFYWNCLAPNAGGQPTGAVAAAIDAAFGSFEEFKAKFTDSAINNFGSSWTWLVKNADGSLAIVNTSNAATPLTDEGVTPLLTVDLWEHAYYIDFRNVRPDYMGAFWSLVNWSFVEENLAK	soluble
